Data taken from patent publication US20220089698A1.

Key:
Assay in all cases: cell-based or functional assay
[1] = target: HIV-1 envelope glycoprotein gp120 of virus CHO77 (HIV-1 subtype B, virus CHO77)
[2] = target: HIV-1 envelope glycoprotein gp120 of virus BaL (HIV-1 BaL (lab adapted strain, subtype B))
[3] = target: HIV-1 envelope glycoprotein gp120 of virus 92US657 (HIV-1 subtype B, isolate 92US657)

B1: Antibody 1.36.35-1 (antibody, human IgG1, kappa, V domains shown)
VH: QVQLVQSGAEVKKPGASVRVSCKASGYNIRDYFMHWWRQAPGQGLQWVGWINPKTGQPNNPRQFQGRVTMTRHASWDFDTFSAYMDLSRLRSDDTATYFCARQRTDYWDFDVWGQGTMVTVSS
VL: DIQMTQSPSSLSASVGDRVTITCQANGYLNWYQQKPGKAPKLLIYDGSNLETGVPSRFSGSRWGQEYTLTISSLQPEDIATYFCQVYEFVGPGTNLDIKR
Virus Neutralization Potency (IC50) [1]: 0.32 µg/mL | Virus Neutralization Potency (IC50) [2]: > 20 µg/mL | Virus Neutralization Potency (IC50) [3]: 5.37 µg/mL
